Consider 36 sequences from the supplement of paper PMC10567573.

± gives the standard deviation.

This series is described as follows: protein stability index of a GFP-peptide fusion (GPS, HEK-293T) (PSI 1-6); higher = more stable. Particulars: c terminus: a fixed tail appended.
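Note: 24-mer peptide tiles fused after GFP, lentivirally expressed, FACS-sorted into six equal bins by GFP/DsRed ratio, decoded by Illumina sequencing, PSI is the read-weighted mean bin number.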

Take DRFAQDSEMKKCSDYESIEVPDSY [PPEF2]: the protein stability index is 5.15 ± 0.23 (treatment: DMSO) and 5.15 ± 0.34 (treatment: MLN4924 1 uM, 8 h).
Regarding DRIRFTVNRRISIVGFGLYGSIHG [BTBD1], the protein stability index (treatment: DMSO) was determined as 2.25 ± 0.61 and the protein stability index (treatment: MLN4924 1 uM, 8 h) was 2.32 ± 1.2.
DSDDDDDVAVTVDRDRFMDEFFEQ [STX1A]: the protein stability index turned out to be 5.36 ± 0.49 (treatment: DMSO) and 5.43 ± 0.32 (treatment: MLN4924 1 uM, 8 h).
In the same order, the values of DSDKLSGLWSRISHLVLPVQPVSS [TOR1AIP2] are 2.3 ± 0.24 and 2.32 ± 0.21.
DSGVGKSNLLSRFTRNEFNLESKS [RAB11A] had a protein stability index (treatment: DMSO) of 4.03 ± 0.11 and a protein stability index (treatment: MLN4924 1 uM, 8 h) of 4.08 ± 0.21.
For DSQQPGKRRKDSEEEAASPEGKRV [FANCE], the protein stability index is 5.66 ± 0.13 (treatment: DMSO) and 5.5 ± 0.25 (treatment: MLN4924 1 uM, 8 h).
The sequence DSYESYGNSRSAPPTRGPPPSYGG [RBMX] registered a protein stability index (treatment: DMSO) of 4.27 ± 0.35 and a protein stability index (treatment: MLN4924 1 uM, 8 h) of 4.33 ± 0.4.
Take DTALLNLLPMLDALRFTADVRSVL [CTDNEP1]: the protein stability index stood at 2.78 ± 0.48 (treatment: DMSO) and 2.58 ± 0.42 (treatment: MLN4924 1 uM, 8 h).
Take DVAVHMPCLGHTFNAGIQQAFQLP [ZBED1]: the protein stability index amounted to 2.53 ± 0.36 (treatment: DMSO) and 2.8 ± 0.36 (treatment: MLN4924 1 uM, 8 h).
Take DVNDNSPELTITSLFSPVTEDSPL [PCDHGA10]: the protein stability index came to 4.53 ± 0.21 (treatment: DMSO) and 4.65 ± 0.36 (treatment: MLN4924 1 uM, 8 h).
In turn, DVSLCRWHPKPYCQALPYGPGYWM [FBXO34] showed a protein stability index (treatment: DMSO) of 2.33 ± 0.35 and a protein stability index (treatment: MLN4924 1 uM, 8 h) of 2.15 ± 0.32.
Consider DWVSDWSSRPENIPPKEFHFRHPK [BNIP3L], for which the protein stability index came to 3.79 ± 0.27 (treatment: DMSO) and 3.68 ± 0.093 (treatment: MLN4924 1 uM, 8 h).
The corresponding values for EAAGGESALAPSVFKQAKDKVSDG [MAP2] are 5.46 ± 0.26 and 5.43 ± 0.32.
In the same order, the values of EAEKLERQLALPATEQAATQESTF [NOP53] are 5.43 ± 0.32 and 5.53 ± 0.1.
As to EAFLAQFSQLEDKFPGQSSFLWQR [TOR1AIP2], the protein stability index runs as follows: (treatment: DMSO) 2.39 ± 0.56; (treatment: MLN4924 1 uM, 8 h) 2.5 ± 0.53.
The corresponding values for EAKEGDLHRIEIPFKFHMLHSGLV [CARM1] are 2.07 ± 0.48 and 2.49 ± 0.23.
Regarding EALGHMFMYFLRGSLPWQGLKADT [CSNK1G1], the protein stability index is, setting by setting: (treatment: DMSO) 3.63 ± 0.22; (treatment: MLN4924 1 uM, 8 h) 3.19 ± 0.4.
For EARGLRLSDLEDLEEEEEEEEEAE [IRX6], the protein stability index reads like this: (treatment: DMSO) 5.55 ± 0.41; (treatment: MLN4924 1 uM, 8 h) 5.5 ± 0.39.
In the same order, the values of EATNGREGLLRFSSWPFSIQDVVQ [AUP1] are 2.93 ± 0.21 and 3.09 ± 0.37.
ECGKAFSQNSSLVQHERIHTGDKP [ZNF8] returned a protein stability index (treatment: DMSO) of 4.49 ± 0.33 and a protein stability index (treatment: MLN4924 1 uM, 8 h) of 4.48 ± 0.15.
Take EDLLLPGACPGADEAGGGAEGDSW [WEE1]: the protein stability index worked out at 5.53 ± 0.12 (treatment: DMSO) and 5.58 ± 0.22 (treatment: MLN4924 1 uM, 8 h).
In the same order, the values of EDTHVQIGQVHEEFKQNIENVSVE [FCHO1] are 5.48 ± 0.27 and 5.49 ± 0.21.
The corresponding values for EDVARPTQRLWDFTQSGPIVSRAT [GALNT9] are 3.99 ± 0.056 and 3.87 ± 0.33.
In the same order, the values of EDVEDHYEMGEELGSGQFAIVRKC [DAPK3] are 5.06 ± 0.099 and 5.3 ± 0.35.
As for EDWDSALFAELGYFTDTDELQLEA [ATF6], the protein stability index is, setting by setting: (treatment: DMSO) 4.3 ± 0.21; (treatment: MLN4924 1 uM, 8 h) 4.65 ± 0.23.
With EDYPAALPNHKPKGTFKDYVRDRA [ETS1], the protein stability index runs as follows: (treatment: DMSO) 4.57 ± 0.1; (treatment: MLN4924 1 uM, 8 h) 4.62 ± 0.32.
In the same order, the values of EEADFLSAETGSPRLTMHYPCLEK [IRX6] are 4.49 ± 0.19 and 4.56 ± 0.065.
Regarding EEAPAVTAGLKIFEPPAPGEGNSS [TNFSF13B], the protein stability index stood at 5.33 ± 0.23 (treatment: DMSO) and 5.3 ± 0.14 (treatment: MLN4924 1 uM, 8 h).
As for EEDDGRGRGLLRWDSFSAWLHCVC [DENND6A], the protein stability index amounted to 3.06 ± 0.25 (treatment: DMSO) and 3.04 ± 0.29 (treatment: MLN4924 1 uM, 8 h).
On to EEDLVLTCEDDEDEELGGSSRVPV [ZBTB22], for which the protein stability index is, setting by setting: (treatment: DMSO) 5.67 ± 0.24; (treatment: MLN4924 1 uM, 8 h) 5.6 ± 0.21.
The corresponding values for EEEEEEEEAEAGEEAVPEEEGPTV [CHGA] are 5.34 ± 0.25 and 5.4 ± 0.25.
The corresponding values for EEELIRIFQEQQKKWQQYRSVRRE [FAM9B] are 3.92 ± 0.33 and 4.07 ± 0.49.
For the sequence EEENDYRNLDASPTYKGLLMSLQN [CEP70], the protein stability index worked out at 3.67 ± 0.18 (treatment: DMSO) and 3.63 ± 0.34 (treatment: MLN4924 1 uM, 8 h).
The corresponding values for EEENPGGCEDEYLVNPTCQVLVKD [ZER1] are 5.54 ± 0.22 and 5.54 ± 0.22.
The corresponding values for EEETQFYISETVLAIDAIHQLGFI [STK38L] are 2.48 ± 0.51 and 2.58 ± 0.2.
In the same order, the values of EEFNVLEMEVMRRQLYAVNRRLRA [FATE1] are 2.92 ± 0.21 and 3.1 ± 0.5.
